Residue numbers refer to the chain shown, from its start. One block for each binder: values may come before it.
Columns and labels:
[1] = target: T1, human coagulation Factor X (human, UniProt P00742 41-179; P00742 183-488); experiment: ITC, 37 °C, pH 7.4, antibody injected into FX
T1 construct: also called FX
Experimental: (§1) Binding affinities for anti-FIX(a) and anti-FX(a) antibodies were measured by isothermal titration calorimetry […] by using a PEAQ-ITC calorimeter (Malvern, UK). The experiments were conducted at 37° C. and pH 7.4 using 25 mM Tris, 150 mM NaCl, 5 mM CaCl₂ (Tris-buffer). The sample cell (200 μl) contained either FIX, FIXa, or FX (macromolecule) and anti-FIX(a) and anti-FX(a) antibodies (ligand) were injected via a syringe (40 μl). All proteins were extensively dialyzed in Tris-buffer prior to measurements to secure matched buffer conditions. A thermal equilibration step was followed by a 60 s delay and subsequently an initial 0.2 μl injection of antibody, followed by 12-16 injections of 1.5-3 μl of antibody at an interval of 120 s. The stirring speed was maintained at 750 rpm, and the reference power is kept constant at 5-10 μcal/s. The heat associated with each injection of antibody is integrated and plotted against the molar ratio of ligand to macromolecule. The resulting isotherm is fitted to a one-site binding model to obtain the affinity (KD), stoichiometry (n), and enthalpy of interaction (ΔH) using the software provided by the manufacturer. Experiments were performed in at least duplicates.

[2] = target: FIX A334L with C-terminal His-tag (human, UniProt P00740 47-461); experiment: SPR (Biacore T200), FIX variant captured via His-tag, 20 µM OA antibody
Experimental: (§2) SPR analyses were carried out on Biacore T200 instruments (Biacore AB, Uppsala, Sweden). For the experiments on the T200 instrument the following conditions were applied: measurements were conducted at a temperature of 25° C. Anti-His antibody at 25 μg/ml (R&D Systems, catalogue #MAB050) was immobilized on a CM5 sensor chip using standard amine coupling chemistry. […] at 25 nM were injected at a flow rate of 10 μl/min for 1 min and were captured via their His-tag by the immobilized anti-His antibody. […] The running buffer used was 20 mM Tris, 150 mM NaCl, 5 mM CaCl₂, 0.05% Tween-20, 10 mg/ml BSA, pH 7.4. This was also used for dilution of anti-FIX antibody and FIX samples. Regeneration of the chip was achieved using 10 mM Glycine pH 2.0. Binding data were analysed according to a 1:1 model using BiaEvaluation 4.1 supplied by the manufacturer (Biacore AB, Uppsala, Sweden).
(§3) where Rmax_FIXvar and Rmax_FIXwt represent capture level (RU) of FIX variant and wild-type FIX, respectively, and where R_{max_Ab,FIX_var} and R_{max_Ab,FIX_wt} represent Rmax (RU) of the 20 μM antibody to captured FIX variant and wild-type FIX, respectively.

[3] = target: FIX K341E with C-terminal His-tag (human, UniProt P00740 47-461); experiment: as above
Experimental: as §2, §3

[4] = target: FIX T343A with C-terminal His-tag (human, UniProt P00740 47-461); experiment: as above
Experimental: as §2, §3

[5] = target: FIX D332A with C-terminal His-tag (human, UniProt P00740 47-461); experiment: as above
Experimental: as §2, §3

[6] = target: FIX N346Q with C-terminal His-tag (human, UniProt P00740 47-461); experiment: as above
Experimental: as §2, §3

[7] = target: FIX T340A with C-terminal His-tag (human, UniProt P00740 47-461); experiment: as above
Experimental: as §2, §3

[8] = target: FIX T335A with C-terminal His-tag (human, UniProt P00740 47-461); experiment: as above
Experimental: as §2, §3

[9] = target: FIX R338A with C-terminal His-tag (human, UniProt P00740 47-461); experiment: as above
Experimental: as §2, §3

[10] = target: FIX K341A with C-terminal His-tag (human, UniProt P00740 47-461); experiment: as above
Experimental: as §2, §3

[11] = target: FIX D332S with C-terminal His-tag (human, UniProt P00740 47-461); experiment: as above
Experimental: as §2, §3

[12] = target: FIX R333A with C-terminal His-tag (human, UniProt P00740 47-461); experiment: as above
Experimental: as §2, §3

[13] = target: FIX S339L with C-terminal His-tag (human, UniProt P00740 47-461); experiment: as above
Experimental: as §2, §3

[14] = target: FIX L337A with C-terminal His-tag (human, UniProt P00740 47-461); experiment: as above
Experimental: as §2, §3

[15] = target: FIX T343I with C-terminal His-tag (human, UniProt P00740 47-461); experiment: as above
Experimental: as §2, §3

[16] = target: FIX N346A with C-terminal His-tag (human, UniProt P00740 47-461); experiment: as above
Experimental: as §2, §3

[17] = target: FIX K301A with C-terminal His-tag (human, UniProt P00740 47-461); experiment: as above
Experimental: as §2, §3

[18] = target: T2, human plasma-derived Factor IXa (human, UniProt P00740 47-191; P00740 227-461); experiment: cell-based or functional assay
[19] = target: T3, wild-type FIX with C-terminal His-tag (human, UniProt P00740 47-461); experiment: SPR (Biacore T200), wild-type FIX captured via His-tag, 20 µM OA antibody (reference)
T3 construct: also called WT
Experimental: as §2, §3

[20] = target: T4, human coagulation Factor IX (human, UniProt P00740 47-461); experiment: ITC, 37 °C, pH 7.4, antibody injected into FIX
T4 construct: also called FIX
Experimental: as §1

[21] = target: T2, human plasma-derived Factor IXa; experiment: ITC, 37 °C, pH 7.4, antibody injected into FIXa
Experimental: as §1

[22] = target: T5, randomly biotinylated human FIXa (human, UniProt P00740 47-191; P00740 227-461, randomly biotinylated (NHS-d-biotin)); experiment: BLI (Octet) in-tandem binning on biotinylated FIXa, 330 nM each; competitor (1st antibody): mAb01-2434
Experimental: (§4) Binning experiments were performed using Octet fortebio systems (HTX, Red384), based on the principle of Bio-Layer Interferometry, and equipped with streptavidin sensors (Pall Life Sciences, Menlo Park, CA), and using 8-channel mode. The binning assays were performed using a modified in-tandem setup. Briefly, (1) 370 nM randomly biotinylated human FIXa (biotinylated using NHS-d-biotin from Sigma H1759 and human FIXa obtained from Haematologic Technologies, Essex Junction, VT) was captured by streptavidin tips (dip and read biosensors Part NO:18-5019, Pall Life Sciences, Menlo Park, CA) for 5 minutes, (2) 330 nM of a first bivalent anti-FIXa antibody was then offered to the streptavidin tips, and incubated for 10 minutes until the biotinylated FIXa were fully saturated and (3) the tips were then offered to an equimolar solution of 330 nM of the first antibody and 330 nM of a second bivalent anti-FIXa antibody for 5 minutes. […] Unspecific binding were evaluated by including an unrelated human IgG4 bivalent antibody as first and second antibody control.

[23] = target: T5, randomly biotinylated human FIXa; experiment: BLI (Octet) in-tandem binning on biotinylated FIXa, 330 nM each; competitor (1st antibody): mAb01-1767
Experimental: as §4

[24] = target: T5, randomly biotinylated human FIXa; experiment: BLI (Octet) in-tandem binning on biotinylated FIXa, 330 nM each; competitor (1st antibody): 224F3
Experimental: as §4

[25] = target: T5, randomly biotinylated human FIXa; experiment: BLI (Octet) in-tandem binning on biotinylated FIXa, 330 nM each; competitor (1st antibody): hIgG4 (control)
Experimental: as §4

T4 sequence (P00740 47-461 T194A limits assumed): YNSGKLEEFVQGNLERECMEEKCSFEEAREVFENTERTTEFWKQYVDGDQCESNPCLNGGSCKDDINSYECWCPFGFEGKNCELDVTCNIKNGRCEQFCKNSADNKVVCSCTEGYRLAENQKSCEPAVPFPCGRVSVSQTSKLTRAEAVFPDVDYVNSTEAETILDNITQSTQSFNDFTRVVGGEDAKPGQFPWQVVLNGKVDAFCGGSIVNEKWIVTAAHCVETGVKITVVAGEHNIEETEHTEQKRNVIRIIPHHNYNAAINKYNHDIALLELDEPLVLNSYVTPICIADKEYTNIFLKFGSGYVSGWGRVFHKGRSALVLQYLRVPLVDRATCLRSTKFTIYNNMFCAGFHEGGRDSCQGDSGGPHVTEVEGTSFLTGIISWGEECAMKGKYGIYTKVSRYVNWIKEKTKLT
T5 sequence (P00740 47-191, chain 1 of 2): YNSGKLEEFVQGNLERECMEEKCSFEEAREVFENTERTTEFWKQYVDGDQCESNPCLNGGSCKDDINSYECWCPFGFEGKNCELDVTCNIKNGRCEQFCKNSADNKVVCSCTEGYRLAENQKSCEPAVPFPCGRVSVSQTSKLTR
T5 sequence (P00740 227-461, chain 2 of 2): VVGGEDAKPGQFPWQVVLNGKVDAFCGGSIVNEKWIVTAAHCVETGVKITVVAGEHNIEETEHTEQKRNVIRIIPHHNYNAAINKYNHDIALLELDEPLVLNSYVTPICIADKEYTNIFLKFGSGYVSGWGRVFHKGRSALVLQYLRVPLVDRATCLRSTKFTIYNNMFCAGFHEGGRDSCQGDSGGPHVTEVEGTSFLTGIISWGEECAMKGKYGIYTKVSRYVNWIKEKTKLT
T2 sequence (P00740 47-191, chain 1 of 2): as the sequence (P00740 47-191, chain 1 of 2) above
T2 sequence (P00740 227-461, chain 2 of 2): as the sequence (P00740 227-461, chain 2 of 2) above
T1 sequence (P00742 41-179, chain 1 of 2): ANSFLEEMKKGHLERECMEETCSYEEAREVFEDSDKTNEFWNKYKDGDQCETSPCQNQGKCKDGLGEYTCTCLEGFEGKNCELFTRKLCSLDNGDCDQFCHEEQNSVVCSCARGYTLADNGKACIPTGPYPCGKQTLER
T1 sequence (P00742 183-488, chain 2 of 2): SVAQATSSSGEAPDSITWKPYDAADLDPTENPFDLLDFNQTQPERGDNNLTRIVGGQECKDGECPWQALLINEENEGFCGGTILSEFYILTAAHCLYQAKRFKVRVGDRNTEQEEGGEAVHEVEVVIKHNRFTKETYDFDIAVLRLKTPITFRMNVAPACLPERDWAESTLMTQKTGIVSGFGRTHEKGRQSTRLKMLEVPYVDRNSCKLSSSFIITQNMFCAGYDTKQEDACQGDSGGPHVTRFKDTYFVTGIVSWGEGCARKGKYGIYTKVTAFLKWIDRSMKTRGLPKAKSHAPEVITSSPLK
Chain of FIX D332A with C-terminal His-tag (P00740 other isoform, or with tags, fused parts or gaps D332A D332A limits assumed): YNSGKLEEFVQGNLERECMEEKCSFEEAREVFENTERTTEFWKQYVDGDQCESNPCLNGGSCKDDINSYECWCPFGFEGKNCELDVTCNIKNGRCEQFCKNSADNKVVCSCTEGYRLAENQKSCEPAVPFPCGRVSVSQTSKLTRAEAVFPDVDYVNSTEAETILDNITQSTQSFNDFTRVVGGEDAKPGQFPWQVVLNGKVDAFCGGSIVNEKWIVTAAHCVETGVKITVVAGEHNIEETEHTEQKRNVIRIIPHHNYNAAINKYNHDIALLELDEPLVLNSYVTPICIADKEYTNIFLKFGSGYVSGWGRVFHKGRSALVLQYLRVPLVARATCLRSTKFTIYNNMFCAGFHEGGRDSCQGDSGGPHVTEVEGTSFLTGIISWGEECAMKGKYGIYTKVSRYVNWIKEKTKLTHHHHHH
Chain of FIX A334L with C-terminal His-tag (P00740 other isoform, or with tags, fused parts or gaps A334L A334L limits assumed): as the sequence (P00740 other isoform, or with tags, fused parts or gaps D332A D332A limits assumed) above, with A332D, A334L counted along it
Chain of FIX L337A with C-terminal His-tag (P00740 other isoform, or with tags, fused parts or gaps L337A L337A limits assumed): as the sequence (P00740 other isoform, or with tags, fused parts or gaps D332A D332A limits assumed) above, with A332D, L337A counted along it
Chain of FIX S339L with C-terminal His-tag (P00740 other isoform, or with tags, fused parts or gaps S339L S339L limits assumed): as the sequence (P00740 other isoform, or with tags, fused parts or gaps D332A D332A limits assumed) above, with A332D, S339L counted along it
Chain of FIX R333A with C-terminal His-tag (P00740 other isoform, or with tags, fused parts or gaps R333A R333A limits assumed): as the sequence (P00740 other isoform, or with tags, fused parts or gaps D332A D332A limits assumed) above, with A332D, R333A counted along it
T3 sequence (P00740 other isoform, or with tags, fused parts or gaps limits assumed): as the sequence (P00740 other isoform, or with tags, fused parts or gaps D332A D332A limits assumed) above, with A332D counted along it
Chain of FIX R338A with C-terminal His-tag (P00740 other isoform, or with tags, fused parts or gaps R338A R338A limits assumed): as the sequence (P00740 other isoform, or with tags, fused parts or gaps D332A D332A limits assumed) above, with A332D, R338A counted along it

Binding (%) relative to wild-type FIX [2]: 38% | Binding (%) relative to wild-type FIX [3]: 3% | Binding (%) relative to wild-type FIX [4]: 58% | Binding (%) relative to wild-type FIX [5]: 41% | Binding (%) relative to wild-type FIX [6]: 101% | Binding (%) relative to wild-type FIX [7]: 16% | Binding (%) relative to wild-type FIX [8]: 43% | Binding (%) relative to wild-type FIX [9]: 0% | Binding (%) relative to wild-type FIX [10]: 18% | Binding (%) relative to wild-type FIX [11]: 41% | Binding (%) relative to wild-type FIX [12]: 55% | Binding (%) relative to wild-type FIX [13]: 46% | Binding (%) relative to wild-type FIX [14]: 38% | Binding (%) relative to wild-type FIX [15]: 62% | Binding (%) relative to wild-type FIX [16]: 92% | Binding (%) relative to wild-type FIX [17]: 89% | Stimulation Index, FXa generation assay, 3600 nM OA antibody [18]: 10600 fold | Binding (%) relative to wild-type FIX [19]: 100%
B3: one-armed (OA) mAb01-9994 (antibody, V domains shown)
VH: EVQLVESGGGLVQPGRSLRLSCAASGFTFHDYAMHWVRQVPGKGLEWVSGISWKGDIGGYVDSVKGRFTISRDNEKNSLYLQMNSLRAEDTALYYCVKSYGSGSFYNAFDSWGQGTLVTVSS
VL: DIQMTQSPSTLSASVGDRVTITCRASQSISSWLAWYQQKPGKAPKFLIYKASRLDRGTPSRFSGSGSGTEFSLTISSLQPDDFATYYCLEYSSYIRTFGQGTKVEIK
notes: also called OA variant of mAb01-9994

Kd [20]: 5.6 µM | Kd [21]: 3.57 µM | interferometry response value [22]: 0.34 | interferometry response value [23]: 0.01 | interferometry response value [24]: 0.24 | interferometry response value [25]: 0.4
B4: mAb01-9978 (antibody, V domains shown)
VH: B3 VH
VL: B3 VL with F46L, D55E
notes: Bivalent IgG

Kd [20]: 1.92 µM | Kd [21]: 1.26 µM | interferometry response value [22]: 0.6 | interferometry response value [23]: 0.02 | interferometry response value [24]: 0.44 | interferometry response value [25]: 0.83
B7: mAb01-9985 (antibody, V domains shown)
VH: B3 VH with K54R, D62K, E75A
VL: B3 VL with R53K, D55E
notes: Bivalent IgG

The next lines start with the binder.

B1: mAb01-8913 (antibody, V domains shown)
VH: EVQLVQSGAEVKKPGESLRISCKGSGYSFSTSWIVWVRQMPGKGLEWMGMIDPSDSFTSYSPSFQGHVTISADKSISTAYLQWSSLKASDTAMYYCARLHYYNSEEFDVWGQGTLVTVSS
VL: EIVLTQSPGTLSLSAGERATLSCRASQSVSSSYLAWYQQKPGQAPRLLIYGASSRARGIPDRFSGSGSGTDFTLTISRLEPEDFAVYYCQQFGSSRLFTFGQGTKLEIK
notes: Bivalent IgG
Kd [1]: 0.35 µM

B2: mAb01-9772 (antibody, V domains shown)
VH: B1 VH with V35S, F57Y, L115M
VL: B1 VL with A15P, A52Q, A56T, F92Y, S94D, R96Q
notes: Bivalent IgG
Kd [1]: 1.37 µM

B5: mAb01-9994 (antibody, V domains shown)
VH: B3 VH
VL: B3 VL
notes: Bivalent IgG
Kd [20]: 2.48 µM | Kd [21]: 1.8 µM | interferometry response value [22]: 0.56 | interferometry response value [23]: 0.01 | interferometry response value [24]: 0.4 | interferometry response value [25]: 0.75

B6: mAb01-9933 (antibody, V domains shown)
VH: B3 VH with R19K, H30D, E75A, M83L, V97A
VL: B3 VL with V15A, R18E, F46L, R53K, T58V, S77D
notes: Bivalent IgG
Kd [20]: 2.39 µM | Kd [21]: 1.3 µM | interferometry response value [22]: 0.46 | interferometry response value [23]: 0.02 | interferometry response value [24]: 0.34 | interferometry response value [25]: 0.59
